Experimental data from article PMC5829300.

Target: ^hexYME1^WB (^hexYME1 variant containing an E381Q Walker B mutant) (yeast) (UniProt P32795)
Experiment: cryo-EM structure

stoichiometry N: 6
Substance: ^hexYME1^WB (^hexYME1 variant containing an E381Q Walker B mutant) (from UniProt P32795 279-712) (enzyme)
